These are literature values, as cited in PMC5722893.

As usually defined, the Kd is the concentration at which binding is half-saturated.

In series [1] the target is TSLP:TSLPR complex (Homo sapiens) (UniProt Q969D9).
The next series deals with TSLPR (Homo sapiens) (UniProt Q9HC73).
Sequence of UniProt Q9HC73 (Q9HC73 23-231): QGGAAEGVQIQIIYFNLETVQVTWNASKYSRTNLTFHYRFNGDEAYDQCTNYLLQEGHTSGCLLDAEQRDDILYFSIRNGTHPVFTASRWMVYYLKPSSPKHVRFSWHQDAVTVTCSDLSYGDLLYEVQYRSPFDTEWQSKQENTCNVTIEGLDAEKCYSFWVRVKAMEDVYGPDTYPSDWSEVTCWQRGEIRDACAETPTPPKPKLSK

In the case of IL-7Ralpha (from UniProt P16871), the equilibrium dissociation constant (Kd) in series [1] was 29 nM. For the substance TSLP (from UniProt Q969D9), the Kd with TSLPR (Homo sapiens) is 32 nM.
